Reference: article PMC10793706, “Genetically engineered IgG1 and nanobody oligomers acquire strong intrinsic CD40 agonism” (Bioengineered, 2024)
Each block holds one molecule with its values, some of them ahead of it.

Assays:
[1] = target: human CD40 expressed on HT1080-CD40 transfectants (human) (UniProt P25942)
[2] = target: T1, CD40-GpL, the CD40 ectodomain with a C-terminal Gaussia princeps luciferase (GpL) reporter domain (Homo sapiens, UniProt P25942); assay: plate binding assay with Gaussia luciferase (GpL) fusion proteins; plates coated with 1 µg/ml protein G, loaded with anti-CD40 antibodies (1 µg/ml, in medium); GpL-linked CD40 ectodomain and its deletion mutants added for 1 hour at 37°C; TNFR2(ed)-GpL values subtracted as unspecific binding; settings: partners not purified
T1 construct: extracellular domain of CD40 with its cysteine-rich domains (CRDs); also called CD40(ed)-GpL; source: HEK293T, transfected, cell culture supernatant; not shown: Gaussia princeps luciferase (GpL), C-terminal, kept
T1 sequence (P25942 21-193): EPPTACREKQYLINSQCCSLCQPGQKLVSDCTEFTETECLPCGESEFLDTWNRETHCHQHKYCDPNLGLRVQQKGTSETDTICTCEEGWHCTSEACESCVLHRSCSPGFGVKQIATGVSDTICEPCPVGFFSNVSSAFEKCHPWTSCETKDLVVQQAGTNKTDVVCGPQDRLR

Chain of human CD40 expressed on HT1080-CD40 transfectants (human) (P25942 21-277): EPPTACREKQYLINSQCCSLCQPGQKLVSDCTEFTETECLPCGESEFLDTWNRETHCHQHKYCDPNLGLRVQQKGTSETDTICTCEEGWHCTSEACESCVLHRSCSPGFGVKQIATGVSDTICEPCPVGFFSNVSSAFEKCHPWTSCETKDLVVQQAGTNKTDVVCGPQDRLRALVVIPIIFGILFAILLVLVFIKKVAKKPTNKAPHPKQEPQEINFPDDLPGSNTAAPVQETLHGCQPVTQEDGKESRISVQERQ

B2: ADC-1013-IgG1 (antibody, V domains shown)
VH: EVQLLESGGGLVQPGGSLRLSCAASGFTFSTYGMHWVRQAPGKGLEWLSYISGGSSYIFYADSVRGRFTISRDNSENALYLQMNSLRAEDTAVYYCARILRGGSGMDLWGQGTLVTVSS
VL: QSVLTQPPSASGTPGQRVTISCTGSSSNIGAGYNVYWYQQLPGTAPKLLIYGNINRPSGVPDRFSGSKSGTSASLAISGLRSEDEADYYCAAWDKSISGLVFGGGTKLTVL
notes: constant region of the IgG1 heavy chain; IgG1; also called Mitazalimab; source: HEK293T, transfected, cell culture supernatant
binding result [2]: binds

B3: APX005M-IgG1 (antibody, V domains shown)
VH: QSLEESGGDLVKPGASLTLTCTASGFSFSSTYVCWVRQAPGKGLEWIACIYTGDGTNYSASWAKGRFTISKPSSTTVTLQMTSLTPADTATYFCARPDITYGFAINFWGPGTLVTVSS
VL: DIVMTQTPSSASEPVGGTVTIKCQASQSISSRLAWYQQKPGQPPKLLIYRASTLASGVPSRFKGSGSGTEFTLTISDLECADAATYYCQCTGYGISWPIGGGTEVVVK
notes: VH of APX005M; constant region of the IgG1 heavy chain; IgG1; also called Sotigalimab; anti-CD40(APX); source: HEK293T, transfected, cell culture supernatant
binding result [2]: binds

Next, values leading:

p100 processing and TRAF1 induction (western blot) in U2OS cells; concentration from which the response starts [1]: < 100 ng/mL
Molecule: APX005M-IgG1 (N297A-RGY) (antibody)

binding result [2]: binds
B1: G28.5-IgG1 (antibody, V domains shown)
VH: DIQLQQSGPGLVKPSQSLSLTCSVTGYSITTNYNWNWIRQFPGNKLEWMGYIRYDGTSEYTPSLKNRVSITRDTSMNQFFLRLTSVTPEDTATYYCARLDYWGQGTLVTVSS
VL: DIVMTQNPLSLPVSLGDEASISCRSSQSLENSNGNTFLNWFFQKPGQSPQLLIYRVSNRFSGVPDRFSGSGSGTDFTLKISRVEAEDLGVYFCLQVTHVPYTFGGGTTLEIK
notes: VH of G28.5; constant region of the IgG1 heavy chain; IgG1; source: HEK293T, transfected, cell culture supernatant
